Test results: patent US20170056327A1 (The Methodist Hospital, priority 2015, published 2017)

Experiments:
[1] = test system: BRAF, phosphor-BRAF, MEK, phosphor-MEK, ERK, phosphor-ERK in A375 melanoma cells; test: Western blot of BRAF pathway proteins after treatment; format: cell-based, human; conditions: delivered by composite with single cargo; siRNA 100 nM, docetaxel 100 nM
Method: The size and zeta potential of the particles were measured by the Zetasizer Nano (Malvern Instruments). The SEM characterization was shown on an ultra-high resolution scanning electron microscope (SEM 230, NovaNano, Hillsboro, Oreg., USA). Western blots were performed using standard protocols on 4%-15% Bio-Rad Mini-Protean TGX Precast Gels (Bio-Rad, Hercules, Calif., USA).

[2] = test system: T1, MMP2 substrate peptide AGFSGPLGMWSAGSFG (SEQ ID NO:1)
T1 sequence: AGFSGPLGMWSAGSFG

[3] = molecular target: MMP2 substrate peptide … (SEQ ID NO:1); test: cell-based or functional assay

Chain of matrix metalloproteinase-2 (MMP-2) enzyme (P08253 110-660): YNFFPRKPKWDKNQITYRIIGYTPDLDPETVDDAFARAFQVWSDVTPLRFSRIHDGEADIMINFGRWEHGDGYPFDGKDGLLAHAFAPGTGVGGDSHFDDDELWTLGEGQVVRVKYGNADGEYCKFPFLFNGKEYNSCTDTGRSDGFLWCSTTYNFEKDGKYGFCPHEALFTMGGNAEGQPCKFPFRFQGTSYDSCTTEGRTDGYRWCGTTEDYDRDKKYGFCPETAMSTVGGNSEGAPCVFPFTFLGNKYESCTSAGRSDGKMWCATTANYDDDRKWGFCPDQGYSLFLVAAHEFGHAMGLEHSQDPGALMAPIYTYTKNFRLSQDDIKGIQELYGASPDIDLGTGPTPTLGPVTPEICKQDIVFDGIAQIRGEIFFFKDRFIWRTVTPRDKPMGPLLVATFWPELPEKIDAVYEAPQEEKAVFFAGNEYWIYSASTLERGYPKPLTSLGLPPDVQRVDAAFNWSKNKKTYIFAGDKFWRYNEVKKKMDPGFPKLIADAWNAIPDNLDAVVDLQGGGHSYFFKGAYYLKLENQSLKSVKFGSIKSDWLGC

Row | Molecule | effect on protein expression of BRAF pathway [1] | coumarin 6 released into buffer within 6 hrs from MSV/Peptide NPs with MMP2 enzyme (2 ug/mL); without MMP2 cleavage only about 40% was released [2] | cellular uptake in A375 cells of stimuli-release particles (MSV/Peptide NPs) relative to non-stimuli-release particles (MSV/NPs), medium with 2 ug/mL MMP2, 6-hrs' incubation [3] | cellular uptake in A375 cells of stimuli-release particles (MSV/Peptide NPs) relative to non-stimuli-release particles (MSV/NPs), medium with 2 ug/mL MMP2, 24-hrs' incubation [3]
1 | 5′-GCUACAGAGAAAUCUCGAU-3′ (listed as RNA, chemistry not given here) [BRAF siRNA] | knockdown BRAF expression and its related phosphor-proteins downstream | – | – | –
2 | CC(=O)O[C@@]12CO[C@@H]1C[C@H](O)[C@@]1(C)C(=O)[C@H](O)C3=C(C)[C@@H](OC(=O)[C@H](O)[C@@H](NC(=O)OC(C)(C)C)c4ccccc4)C[C@@](O)([C@@H](OC(=O)c4ccccc4)[C@H]21)C3(C)C [docetaxel] | decreased the expression of BRAF, phosphor-BRAF and phosphor-MEK, but increased the expression of phosphor-ERK | – | – | –
3 | matrix metalloproteinase-2 (MMP-2) enzyme | – | about 80% of the coumarin 6 was released | 1.2 fold | 1.5 fold
